Data taken from US20040048327A1.
Numbered stars: 1 amine (or outer) side, 2 acyl side, 3 side chain; on linkers, the order of the positions; unused ones are H or OH. Square brackets hold non-standard residues; d marks the D form. * marks the point of attachment. AAsp = aza-Asp, O=C(N(CC(=O)[*:3])N[*:1])[*:2]; Cbz = O=C(OCc1ccccc1)*; NHBn = c1ccc(CN*)cc1

T1: caspase-3 (UniProt P42574)
T1 sequence (looked up): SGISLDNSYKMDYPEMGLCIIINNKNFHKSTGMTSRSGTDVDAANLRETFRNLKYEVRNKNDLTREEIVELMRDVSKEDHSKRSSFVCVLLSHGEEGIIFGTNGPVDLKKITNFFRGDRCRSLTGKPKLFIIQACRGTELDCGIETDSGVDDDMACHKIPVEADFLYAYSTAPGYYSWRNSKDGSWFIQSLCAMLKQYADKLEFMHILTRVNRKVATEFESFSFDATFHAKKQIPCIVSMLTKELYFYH

T2: caspase-6 (UniProt P55212)
T2 sequence (looked up): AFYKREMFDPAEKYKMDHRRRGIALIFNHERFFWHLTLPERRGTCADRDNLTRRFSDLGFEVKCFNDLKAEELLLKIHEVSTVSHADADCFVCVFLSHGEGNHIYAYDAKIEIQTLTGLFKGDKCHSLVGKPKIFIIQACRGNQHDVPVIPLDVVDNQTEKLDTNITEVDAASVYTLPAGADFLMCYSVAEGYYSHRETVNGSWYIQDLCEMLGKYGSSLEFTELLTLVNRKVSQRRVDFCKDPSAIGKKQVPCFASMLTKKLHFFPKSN

B1: Cbz-Leu-Glu-Thr-AAsp-(2S, 3S)-EP-COOEt (peptide)
peptide: Cbz-LET[AAsp]-{(2S,3S)‑EP‑COOEt}
B2: Cbz-Leu-Glu-Thr-AAsp-(2R, 3R)-EP-COOEt (peptide)
peptide: Cbz-LET[AAsp]-{(2R,3R)‑EP‑COOEt}
B3: Cbz-Leu-Glu-Thr-AAsp-(S,S)-EP-COOCH2Ph (peptide)
peptide: Cbz-LET[AAsp]-{(S,S)‑EP‑COOCH2Ph}
B4: Cbz-Leu-Glu-Thr-AAsp-(S,S)-EP-CONHCH2CH2Ph (peptide)
peptide: Cbz-LET[AAsp]-{(S,S)‑EP‑CONHCH2CH2Ph}
B5: Cbz-Leu-Glu-Thr-AAsp-(S,S)-EP-CO-Ala-NHCH2Ph (peptide)
peptide: Cbz-LET[AAsp]-{(S,S)‑EP‑CO-Ala-NHBn}
B6: Cbz-Leu-Glu-Thr-AAsp-(2S,3S)-EP-CON(CH2Ph)2 (peptide)
peptide: Cbz-LET[AAsp]-{(2S,3S)‑EP‑CON(CH2Ph)2}
B7: Cbz-Leu-Glu-Thr-AAsp-(2S,3S)-EP-CON(CH3)CH2Ph (peptide)
peptide: Cbz-LET[AAsp]-{(2S,3S)‑EP‑CON(CH3)CH2Ph}

molecular target: autolytically stable caspase-1 variant (D381 E) (UniProt P29466); assay: cell-based or functional assay
Sequence (P29466 other isoform, or with tags, fused parts or gaps mutant limits assumed): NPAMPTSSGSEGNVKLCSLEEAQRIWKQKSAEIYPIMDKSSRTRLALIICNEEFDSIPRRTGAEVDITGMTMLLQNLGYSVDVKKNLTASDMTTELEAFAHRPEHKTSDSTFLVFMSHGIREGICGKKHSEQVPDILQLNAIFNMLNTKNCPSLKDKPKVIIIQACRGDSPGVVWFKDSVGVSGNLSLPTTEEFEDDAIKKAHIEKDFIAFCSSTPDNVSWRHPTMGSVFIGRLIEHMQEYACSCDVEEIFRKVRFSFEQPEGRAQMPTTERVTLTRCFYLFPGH

Q: With B1 as the binder, how does the k2 read?
A: 25700 M⁻¹ s⁻¹

Q: How did the k2 turn out when B2 was run?
A: 19600 M⁻¹ s⁻¹

Q: How did the k2 turn out when B3 was run?
A: 43500 M⁻¹ s⁻¹

molecular target: T1, caspase-3; assay: cell-based or functional assay

Q: For B1, which k2 is on record?
A: 3210 M⁻¹ s⁻¹

Q: B2 was tested. Which k2 did it give?
A: 3250 M⁻¹ s⁻¹

Q: With B3 as the binder, how does the k2 read?
A: 3520 M⁻¹ s⁻¹

Q: For B4, which k2 is on record?
A: 2550 M⁻¹ s⁻¹

Q: How did the k2 turn out when B5 was run?
A: 1280 M⁻¹ s⁻¹

Q: For B6, which k2 is on record?
A: 2750 M⁻¹ s⁻¹

Q: With B7 as the binder, how does the k2 read?
A: 2640 M⁻¹ s⁻¹

molecular target: T2, caspase-6; assay: cell-based or functional assay

Q: For B6, which k2 is on record?
A: 13800 M⁻¹ s⁻¹

Q: B7 was tested. Which k2 did it give?
A: 9680 M⁻¹ s⁻¹
